Results reported in PMC7037459, “Constitutive Activation of Guanylate Cyclase by the G86R GCAP1 Variant Is Due to “Locking” Cation-π Interactions that Impair the Activator-to-Inhibitor Structural Transition” (International Journal of Molecular Sciences, 2020).
Numbering of substitutions follows the chain as printed. In names and notes the source's numbering stands. Blank lines part the entries; values can stand above or below the binder they belong to.

Legend:
[1] = target: T1, Recombinant human Guanylate Cyclase 1 (human, UniProt Q02846 52-1103)
T1 sequence (looked up): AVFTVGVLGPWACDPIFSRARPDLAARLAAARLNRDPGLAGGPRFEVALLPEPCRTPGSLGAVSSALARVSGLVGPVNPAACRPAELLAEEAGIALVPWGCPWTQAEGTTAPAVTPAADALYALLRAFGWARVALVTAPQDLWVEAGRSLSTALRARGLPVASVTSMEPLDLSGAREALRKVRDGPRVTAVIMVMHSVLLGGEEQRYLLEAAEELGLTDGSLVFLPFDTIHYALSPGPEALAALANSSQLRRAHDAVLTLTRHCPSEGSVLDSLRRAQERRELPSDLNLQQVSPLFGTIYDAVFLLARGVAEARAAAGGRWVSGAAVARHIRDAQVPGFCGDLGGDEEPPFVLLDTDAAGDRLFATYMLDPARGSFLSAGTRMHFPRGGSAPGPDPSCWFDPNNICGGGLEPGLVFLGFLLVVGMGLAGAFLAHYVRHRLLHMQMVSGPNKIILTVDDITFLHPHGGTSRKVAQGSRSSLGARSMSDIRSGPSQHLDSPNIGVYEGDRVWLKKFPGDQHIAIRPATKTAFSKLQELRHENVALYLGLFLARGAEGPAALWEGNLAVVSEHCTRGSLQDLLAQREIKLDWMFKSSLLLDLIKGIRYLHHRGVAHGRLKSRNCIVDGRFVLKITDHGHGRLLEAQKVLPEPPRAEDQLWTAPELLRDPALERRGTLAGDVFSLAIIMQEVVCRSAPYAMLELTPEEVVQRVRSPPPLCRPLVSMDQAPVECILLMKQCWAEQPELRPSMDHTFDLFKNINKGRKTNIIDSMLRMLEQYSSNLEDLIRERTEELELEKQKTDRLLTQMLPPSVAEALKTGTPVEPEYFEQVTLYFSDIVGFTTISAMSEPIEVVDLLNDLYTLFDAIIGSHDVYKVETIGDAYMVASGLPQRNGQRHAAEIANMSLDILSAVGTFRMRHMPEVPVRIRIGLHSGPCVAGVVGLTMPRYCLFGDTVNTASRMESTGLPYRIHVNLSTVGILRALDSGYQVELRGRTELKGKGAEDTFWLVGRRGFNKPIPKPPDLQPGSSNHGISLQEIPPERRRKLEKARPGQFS

[2] = target: T1, Recombinant human Guanylate Cyclase 1; experiment: cell-based or functional assay

B3: GCAP1 G86R+W94F (natural protein, human, UniProt P43080 1-201, looked up)
chain: MGNVMSGKSVEELSSTECHQWYKKFMTECPSGQLTLYEFRQFFGLKNLSPSASQYVEQMFETFDFNKDGYIDFMEYVAALSLVLKRKVEQKLRFYFKLYDVDGNGCIDRDELLTIIQAIRAINPCSDTTMTAEEFTDTVFSKIDVNGDGELSLEEFIEGVQKDQMLLDTLTRSLDLTRIVRRLQNGEQDEEGADEAAEAAG
modifications: myristoylated forms were obtained by co-transformation with yeast N-myristoyl transferase; which form stood in each experiment is not stated
fold decrease of cGMP synthesis at 33 µM free Ca2+ against the respective maximal activation without Ca2+ [2]: 3 fold

B4: GCAP1 G86R (natural protein, human, UniProt P43080 1-201, looked up)
chain: B3 chain with F94W
modifications: myristoylated forms were obtained by co-transformation with yeast N-myristoyl transferase; which form stood in each experiment is not stated
fold decrease of cGMP synthesis at 33 µM free Ca2+ against the respective maximal activation without Ca2+ [2]: 2 fold

Results, then the binder that gave them:

GC activity (cGMP synthesis) of cell membranes containing GC with ~10 µM GCAP1, 1 mM Mg2+ and 2 mM EGTA (absence of Ca2+) (nmol cGMP*min^−1*mg protein^−1) [1]: 20.4
fold decrease of cGMP synthesis at 33 µM free Ca2+ (inhibiting conditions) against the maximal activation without Ca2+ [1]: 34 fold
B1: Guanylate Cyclase activating protein 1 (GCAP1) WT (natural protein)
chain: B3 chain with R86G, F94W
modifications: myristoylated forms were obtained by co-transformation with yeast N-myristoyl transferase; which form stood in each experiment is not stated

fold decrease of cGMP synthesis at 33 µM free Ca2+ against the respective maximal activation without Ca2+ [2]: 4 fold
B2: GCAP1 G86R+W94L (natural protein, human, UniProt P43080 1-201, looked up)
chain: B3 chain with F94L
modifications: myristoylated forms were obtained by co-transformation with yeast N-myristoyl transferase; which form stood in each experiment is not stated
